Laboratory results: IntAct's records for PubMed 26912900

B1: 26S proteasome regulatory subunit RPN1 (Saccharomyces cerevisiae), P38764 (parent)
chain: MVDESDKKQQTIDEQSQISPEKQTPNKKDKKKEEEEQLSEEDAKLKTDLELLVERLKEDDSSLYEASLNALKESIKNSTSSMTAVPKPLKFLRPTYPDLCSIYDKWTDPNLKSSLADVLSILAMTYSENGKHDSLRYRLLSDVSDFEGWGHEYIRHLALEIGEVYNDQVEKDAEDETSSDGSKSDGSAATSGFEFSKEDTLRLCLDIVPYFLKHNGEEDAVDLLLEIESIDKLPQFVDENTFQRVCQYMVACVPLLPPPEDVAFLKTAYSIYLSQNELTDAIALAVRLGEEDMIRSVFDATSDPVMHKQLAYILAAQKTSFEYEGVQDIIGNGKLSEHFLYLAKELNLTGPKVPEDIYKSHLDNSKSVFSSAGLDSAQQNLASSFVNGFLNLGYCNDKLIVDNDNWVYKTKGDGMTSAVASIGSIYQWNLDGLQQLDKYLYVDEPEVKAGALLGIGISASGVHDGEVEPALLLLQDYVTNPDTKISSAAILGLGIAFAGSKNDEVLGLLLPIAASTDLPIETAAMASLALAHVFVGTCNGDITTSIMDNFLERTAIELKTDWVRFLALALGILYMGQGEQVDDVLETISAIEHPMTSAIEVLVGSCAYTGTGDVLLIQDLLHRLTPKNVKGEEDADEEETAEGQTNSISDFLGEQVNEPTKNEEAEIEVDEMEVDAEGEEVEVKAEITEKKNGESLEGEEIKSEEKKGKSSDKDATTDGKNDDEEEEKEAGIVDELAYAVLGIALIALGEDIGKEMSLRHFGHLMHYGNEHIRRMVPLAMGIVSVSDPQMKVFDTLTRFSHDADLEVSMNSIFAMGLCGAGTNNARLAQLLRQLASYYSREQDALFITRLAQGLLHLGKGTMTMDVFNDAHVLNKVTLASILTTAVGLVSPSFMLKHHQLFYMLNAGIRPKFILALNDEGEPIKVNVRVGQAVETVGQAGRPKKITGWITQSTPVLLNHGERAELETDEYISYTSHIEGVVILKKNPDYREEE
partner: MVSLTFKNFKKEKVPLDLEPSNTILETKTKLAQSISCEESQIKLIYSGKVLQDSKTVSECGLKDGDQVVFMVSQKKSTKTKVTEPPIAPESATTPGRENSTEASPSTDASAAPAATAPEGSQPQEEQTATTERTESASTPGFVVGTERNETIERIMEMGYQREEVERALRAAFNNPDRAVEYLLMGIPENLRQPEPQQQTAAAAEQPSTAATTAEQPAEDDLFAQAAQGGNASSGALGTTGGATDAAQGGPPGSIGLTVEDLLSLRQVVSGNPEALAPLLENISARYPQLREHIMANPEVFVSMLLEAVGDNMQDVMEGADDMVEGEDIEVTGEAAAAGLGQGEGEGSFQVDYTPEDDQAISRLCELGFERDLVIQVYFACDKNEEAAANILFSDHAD

Variants of: B1
Settings: with rad23_yeast RAD23, P32628

effect of a mutation on the interaction | Variant
disrupting interaction strength | D541A;D548R;E552R
